In the domain aggregation screens of Martell et al. (2025):

Assay: soluble fraction after stress (log2 fold change); higher = more stays soluble; pooled small domains, quantitative proteomics
Conditions: stress: 50 degC
In short: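 The measure of aggregation propensity here is the base-two logarithm of the fold change in the soluble amount of each protein after stress. A higher value means more of that protein stays in solution. Stress was applied at 50°C to pooled libraries of small protein domains, read out by high-throughput quantitative proteomics.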

Sequence	soluble fraction (log2)
HMTNVIPKAMAPFNGSTIIADGIKNIKDHIDNLYITVGYKGATLSEHVINKGVSAVFNTTGKGNAWWVYN	0.0606
HMDGKTALQEIVASSGWSPPEYKVSESGPDHDKDFVAYAIVNGVAYPEGHGKSKREAEQVAARIAFEALSK	-0.18
HMGSVHDAATDRIREMILGGQFEPGERLRQDDLATSLGVSTMPVREALRQLQAEGLVVFYPRKGAVVAR	0.142
HMLKEKETRALANFTNKFFGLDISEDLKPIALSELSKFKKTHKISNLEEFINSFQYDFQNEKILSLLDIFL	-0.994
HMSEVSEILTRARFFAGVKTDAELSTLLKIPYGTLIGWKTRKNIPESRIAQMALILGIRRDTLIPA	-1.71
HMQYTTDEVRERVLSVLNQLLLRWIVREGKDMFNIQANAVEISEGIKGELNTELEKIGLAATGFQIDSV	-0.52
HMLINFPNKLKRLRLANNLTQQELANILETTKQAVSSYESGKSTPSLNSLIKLSEHFNISLDSLVFD	0.183
HMGDTLEIVVIYSNKQKAEEAVNNLKGKFEDLGYNFAIITVDTSKITQLAMESSIQYIEFPKSFYFSD	-1.64
HMGKELSTVVVPDLTGLSVLEARNVLTKVGLQLTPSGAGIAFKQIPTPGTRLTLGATVTVYFVATGY	0.0979
HMKINVQETEVYRYLLERADRLYSMILGEERENLMERTRFFEKEVAKASLPHLPKLYDEFSIYLDRLERG	-0.138
HMEISLEAKMAEVREQVRGLAGINFRTLLEMQASRSNIIVTFLAILELMKIGAIQIRQEEIFGEIIIDSRD	-0.222
HMDTNELIDRYVNEVGQHLPRKTRADIEMELRSLLLDTLEEQSGGEPTPKMAAEVLREFGHPEEIAAQYH	-0.0557
HMEKKTILIPPVITVRALAEISQIPVNRLLQELIKNGVFTSINEKIDFDTAVIIGADLNLDIQLL	-0.95
HMSPTEQEKIGLFIKKLREEKNLTQEAFASLLKTSQSAVARIESGNQNITIEQLMKIGEVLNHNIVSI	0.0103
HMNGELSQRQWQILRLIAQGLSNEQMARQLFVAPSTIKTHINHLYAKLGVRTRAEAQAIARQKLMA	-0.619
HMPDPVHAAYLRLAVLLTEQAIGPQVTEQQIRDRFALTRRQTSDLMGRLIREGIAEKRAGYGWNINTELTA	-0.845
HMREYRITAEEGHPRIDVFLAGRPEIGLSRSRIQALIDEGQVTLNGAMPKARQAVNPGDVIVVRVPDPE	0.263
HMDIYLDDINRKILHLLSQGVKTKSLRDYIDLSMSAIEKRKKHLKDLFLIEDGKDETLLSEARKKGF	-0.672
HMYKNLRAFRESLGMTQKDFAASLSIGLSTYNGYEVGAREPKSDFWIAVARKYGVTIDYLMGFSDDPHK	-1.11

Sequence	soluble fraction (log2)
HMAEAPGSVELLAERLRPWWEIHGGEWGSKTKALRFLFGDQAPVAGSYWRALEAAIAQIESTT	-0.16
HMVAELAEMAENKNITSAQLALAWILKQSENIIPIPGTKRIKYLNENIEAVNVDLSKEDVENIENLLRKYP	-0.0297
HMLRGKNALMSQLDQIQGIGPKRKRALFNHFLTLDAIKQADVETLRQAPGMNLPAAEQVYRHFHM	0.0637
HMGGTFLVRILDPALNIRAQPSLTARINGVIRDKSVYTIVATSFEPKTQITWGKLKSGAGWISIGSKYVKK	-3.52
HMPGLITLEAAKTTALNHAKLTADQVTFVKQKLDRDDGRQVYEIEFYTSDYKEYDYEIDAVSGLILEVDYD	-0.671
HMVTDTGEIEAIIDRVISENPDSVSDFKNGKERALKFLMGQAMKESKGKANPQIVNELLLKKL	0.264
HMEILTLEELKRLMAKAKLKQNQISGHAGVSKQQISMILAGKRNITKDVSDNLKANLAEYFP	-0.462
HMPANVELLRTFTNKTGTKIKARIVAVSDNKVKLIRDDSKKFIVPIDSLSEEDQKYLKDWIANEVGEQ	0.0498
HMGLQRLTVSPEDAGVRIDKYLAEQLPDITRSYLQKLLKDGSVQMNGKPVKASTKTAVGAVIALTIPEP	0.0689
HMDSLSLTELRIDSASPWIGNRISDFSPYAGELVIMIIRGEETIVPNGDTIILDKDLLVIYSS	-2.18
HMENITTILRSIKNEIKKNSTFVGDDFVNQARSMNQGQIKEKSIYGHGTKKEIEELRDEGVDVLNIPWIT	-0.162
HMPTMVAQINEIVQAKLPGSGLKDYTIRLVESQRDGVVVWVNGTRYLGVDEVAEPQVQALLKEAVAEWERS	-0.132
HMPHFFISTSDVNQDIITVSDKENFHHIARVLRSKVGETLLLVDENRTQYKVVIQNIDSKSITTKVVETLK	-0.138
HMKNISSEEDREKALSLGITQEFIDNKGRYFITVPNKPSNFKEQALNIQKEISEQIDTVINKRFEF	-0.0173
HMGEQLALLERARTLLEDETLETEVQKELEMLLEDIEAARAEANATQLEDLFEELADLLFDLE	-0.0786
HMDDVIEVEGKVVEVLPNTKFIVELANSHKITAHISGKLRMNYIRIMKGDNVTVEMSPYDLTKGRIIWRS	-0.00397
HMTDNSTTTIRNLKIEWLLEEIRNAVRTGVSVDAAVERISNNPFVKPPEDLLNEARIIFLQNAGQI	-0.166
HMVGNEEALRAIVESIIAQNTTEVASFREGKEGLIGWFLGQVMRQTGGKADPKLARQILLELLKQ	-0.242
HMAISEEEATNLALERVPGASAQDLRIQLEFDDGVQKYEGDIIYDGKEYDFEIDANTGTFLEWSE	-0.151
